The values below come from paper PMC3568127 (2013).

Test [1] addresses T1, NRP1 (neuropilin 1) expressed from an adenovirus on DU145 cells (UniProt O14786 22-923). In words: competition with bt-VEGF-A165 on DU145 cells, +BSA.
Test [2] addresses T1, NRP1 (neuropilin 1) expressed from an …. The test is described as follows: competition with bt-VEGF-A165 on DU145 cells.

T1 sequence (O14786 22-923): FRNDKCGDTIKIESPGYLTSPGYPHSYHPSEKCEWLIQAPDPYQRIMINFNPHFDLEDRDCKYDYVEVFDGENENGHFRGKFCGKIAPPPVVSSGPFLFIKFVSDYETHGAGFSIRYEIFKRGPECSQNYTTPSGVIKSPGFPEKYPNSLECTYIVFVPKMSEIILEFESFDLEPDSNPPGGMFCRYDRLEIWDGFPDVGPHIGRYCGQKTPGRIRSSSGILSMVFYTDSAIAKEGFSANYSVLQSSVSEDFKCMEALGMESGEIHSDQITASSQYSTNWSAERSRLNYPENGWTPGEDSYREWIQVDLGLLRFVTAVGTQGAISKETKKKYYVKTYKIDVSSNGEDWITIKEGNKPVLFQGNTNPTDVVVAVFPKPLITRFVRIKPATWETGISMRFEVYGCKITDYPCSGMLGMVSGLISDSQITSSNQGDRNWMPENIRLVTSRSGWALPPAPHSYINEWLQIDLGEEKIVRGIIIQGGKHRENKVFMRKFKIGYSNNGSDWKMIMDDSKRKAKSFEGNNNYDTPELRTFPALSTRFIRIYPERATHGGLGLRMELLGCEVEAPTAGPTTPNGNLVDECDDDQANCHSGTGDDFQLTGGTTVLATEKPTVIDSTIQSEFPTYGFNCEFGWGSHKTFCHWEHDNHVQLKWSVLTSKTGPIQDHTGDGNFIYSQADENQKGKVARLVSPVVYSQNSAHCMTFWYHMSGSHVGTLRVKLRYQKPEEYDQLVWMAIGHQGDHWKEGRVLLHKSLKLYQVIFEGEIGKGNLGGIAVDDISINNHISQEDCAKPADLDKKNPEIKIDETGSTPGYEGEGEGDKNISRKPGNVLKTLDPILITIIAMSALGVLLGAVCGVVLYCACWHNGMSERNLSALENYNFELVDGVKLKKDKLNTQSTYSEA

B1: His6-tagged VEGF-A165-HBD (heparin binding domain of human vascular endothelial growth factor VEGF-A165) (domain or fragment)
chain: PCGPCSERRKHLFVQDPQTCKCSCKNTDSRCKARQLELNERTCRCDKPRR
By IC50 is commonly meant the concentration that inhibits the measured activity by half. A lower IC50 goes with greater potency in that assay. Take B1: the figures for the IC50 in test [1] and in test [2] were 152 nM and 161 nM, respectively.

B2: VEGF-A165-HBD with the His6-tag removed (domain or fragment)
chain: B1 chain
As to B2, the values for the half-inhibitory concentration (IC50) in test [1] and in test [2] were 229 nM and 107 nM, respectively.

B3: VEGF-A165 (R&D Systems), unlabelled (ligand)
chain: APMAEGGGQNHHEVVKFMDVYQRSYCHPIETLVDIFQEYPDEIEYIFKPSCVPLMRCGGCCNDEGLECVPTEESNITMQIMRIKPHQGQHIGEMSFLQHNKCECRPKKDRARQENPCGPCSERRKHLFVQDPQTCKCSCKNTDSRCKARQLELNERTCRCDKPRR
modifications: Disulfide-linked homodimer. Mature VEGF165 (equals P15692-4 residues 27-191, 165 aa) is built from the 395-aa displayed form by removing exon 6a, with K to N at the splice junction. Limits follow the standard mature VEGF165; the paper does not print them.
With B3, the half-inhibitory concentration (IC50) in test [2] came to 0.8 nM.
